Test results from patent US20220177583A1 (University of California, published 2022).

Legend:
[1] = target: T1, human CLDN6, endogenously expressed on cancer cell lines (human, UniProt P56747 1-220); test: FACS dose curve, labelled mAb, ARK2 cells
T1 construct: also called Endogenous CLDN6+; CLDN6 on ARK2, OVCA429, UMUC4 cells
T1 sequence: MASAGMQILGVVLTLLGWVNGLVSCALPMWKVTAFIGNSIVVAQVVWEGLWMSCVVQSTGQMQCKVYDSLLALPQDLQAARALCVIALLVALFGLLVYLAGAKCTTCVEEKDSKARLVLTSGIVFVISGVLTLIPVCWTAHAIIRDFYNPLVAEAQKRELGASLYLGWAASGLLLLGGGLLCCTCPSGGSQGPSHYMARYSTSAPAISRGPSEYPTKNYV

[2] = target: T1, human CLDN6, endogenously expressed on …; test: FACS dose curve, labelled mAb, OVCA429 cells
[3] = target: T2, mouse CLDN6 fused to GFP, expressed on engineered HEK293T cells (mouse, UniProt Q9Z262 1-219); test: FACS dose curve, labelled mAb, HEK293T-CLDN6-mGFP (mouse) cells
T2 construct: whole, on cells; also called HEK293T-CLDN6-mGFP Artificial CLDN6+ (mouse); murine CLDN6; not shown: GFP tag
T2 sequence (looked up): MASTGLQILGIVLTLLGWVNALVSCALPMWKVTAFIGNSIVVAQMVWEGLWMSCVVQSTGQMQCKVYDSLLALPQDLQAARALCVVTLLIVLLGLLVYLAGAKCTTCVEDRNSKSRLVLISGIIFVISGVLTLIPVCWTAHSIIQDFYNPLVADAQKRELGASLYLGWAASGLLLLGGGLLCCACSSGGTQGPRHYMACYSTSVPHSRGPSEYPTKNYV

[4] = target: T3, CLDN9-GFP expressed on engineered HEK293T cells (human, UniProt O95484 1-217); test: FACS dose curve, labelled mAb, HEK293T CLDN9-mGFP cells
T3 construct: whole, on cells; also called HEK293T CLDN9-mGFP; Artificial CLDN9+; not shown: GFP tag
T3 sequence (looked up): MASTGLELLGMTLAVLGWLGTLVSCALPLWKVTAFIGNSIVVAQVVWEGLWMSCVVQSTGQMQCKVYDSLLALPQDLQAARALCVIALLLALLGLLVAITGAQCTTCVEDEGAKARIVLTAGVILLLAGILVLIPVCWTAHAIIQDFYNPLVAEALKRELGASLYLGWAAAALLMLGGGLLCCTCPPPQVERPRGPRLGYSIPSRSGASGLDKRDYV

| Binder | EC50 [1] [nM] | EC50 [2] [nM] | EC50 [3] [nM] | EC50 [4] [nM] |
| --- | --- | --- | --- | --- |
| AB2 (antibody, V domains shown, Full-length IgG (ExpiCHO)) VH: EVKLEESGGGLVQPGGSMKLSCVASGFTFSDYWMNWVRQSPEKGLEWVAQIRLKSDNYATHYAESVKGRFTISRDDSKRSVYLQMNNLRAEDTGTYYCNDGPPSGCWGQGTTLIVSS VL: DIQMTQSPASLSASVGETVTITCRISENIYSYLAWYQQKQGKSPQLLVYNAKILVEGVPSRFSGSGSGTQFSLKINSLQPEDFGNYYCQHHYTVPWTFGGGTKLEIK | 1360 | 912 | ≥ 5000 |  |
| AB3 (antibody, V domains shown, Full-length IgG (ExpiCHO)) VH: EVKLEESGGGLVQPGGSMKLSCVASGFTFSNYWMNWVRQSPEKGLEWVAQIRLKSDNYATHYAESVKGRFTISRDDSKRSVYLQMNNLRAEDTGTYYCNDGPPSGCWGQGTTLIVSS VL: DIQMTQSPASLSASVGETVTITCRISENIYSYLAWYQQKQGKSPQLLVYNAKILVEGVPSRFSGSGSGTQFSLKINSLQPEDFGNYYCQHHYTVPWTFGGGTKLEIK | 1650 | 1100 | 2490 |  |
| AB5 (antibody, V domains shown, Full-length IgG (ExpiCHO)) VH: EVQLQQSGPELVKPGASVKMSCKASGYIFTHYIMHWVKQKPGQGLEWIGCINPYNDGTKYNEKFKGKATLTSDKSSSTAYMELSSLTSEDSAVYYCARYYGYPYYSMDYWGQGTSVTVSS VL: DVLMTQTPLSLPVSLGDQPSISCRSSQSIVHSNGNTYLDWYLQKPGQSPKLLIYKVSNRFSGVPDRFSGSGSGTDFTLKISRVEAEDLGVYYCFQGSHVPFTFGSGTRLEIK | 8 | 5 | 11 | 25 |
| AB4 (antibody, V domains shown, Full-length IgG (ExpiCHO)) VH: QVQLQQSGAELARPGASVKMSCKASGYTFTSYTMHWIKQRPGQGQEWIGYINPSSTYTHYIKKFKDKATLTADKSSSTAYMQLRSLTSEDSAVYYCSRGELGGFAYWGQGTLVTVSA VL: DVVMTQTPLSLPVSLGDQASISCRSSQSLVHSDGNTYLNWYLQKPGQSPKLLIYKVSNRFSGVPDRFSGSGSGTDFTLKIRRVEAEDLGVYFCSQSTHVPYTFGGGTKLEIK | 48 | 168 | ≥ 5000 | 1860 |
| AB10 (antibody, V domains shown, Full-length IgG (ExpiCHO)) VH: QIQLVQSGPALKKPGETVKISCKASGYTFTDYSMHWIKQAPGKGLKWMGWISTETGEPTYADGFKGRFDFSLETSADTAYLSINNLTNEDTATYFCTRGLWSSFAYWGQGTLVTVSA VL: DVVMTQTPLSLPVSLGDQASISCRASQSLVHSNGNTYLHWFLQKPGQSPKLLIYKVSNRFSGVPDRFSGSGSRTDFTLKISRVEAEDLGVYFCSQITHVPYTFGGGTKLEIK | 2140 | 2470 |  | 246 |
| AB1 (antibody, V domains shown, Full-length IgG (ExpiCHO)) VH: QVQLQQSAAELARPGASVKMSCKASGYTFTTYTMHWVKQRPGQGLEWIGFINPSSGYTDYNQKFKDRTTLTADKSSSTVYMQLSSLTSEDSAVYYCANGDYYVAYWGQGTLVTVSA VL: QIVLTQSPAIMSASLGERVTMTCTASSSVSSTYFHWYQQKPGSSPKLWIYSTSNLASGVPRRFSGSASGTSYSLTISSMEAEDAATYYCHQYHRSPLTFGAGTKLELK | 105 | 84 | 72 | 2760 |
| AB18 (antibody, V domains shown, Full-length IgG (ExpiCHO)) VH: QVQLKQSGPELEKPGASVKISCKASGYSFTGYNMNWVKQSNGKSLEWIGNIDPYYGGSTYNQKFTGKATLTVDKSSSTAYMQLKSLTSEDSAVYYCARERSGYVFSAMDYWGQGTSVTVSS VL: NIMMTQSPSSLAVSAGEKVTMSCKSSQSVLFSSNQKNYLAWYQQKPGQSPRLLIYWASTRESGVPDRFTGSGSGTDFTLTISNVQAEDLAVYYCHQYLSSRTFGAGTKLELK | 1350 | 2440 |  |  |
